From the nanobody polyreactivity screen of Harvey et al. (2022) come the findings set out here.

The nature of this data set: yeast display, Sf9 membrane polyspecificity reagent, FACS + sequencing; frameworks hold sequencing errors. In outline:
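Synthetic nanobody libraries on Saccharomyces cerevisiae BJ5465 were galactose-induced for 36–48 hours, stained 1 hour at 4 °C with 10% biotinylated, detergent-solubilized Sf9 membrane reagent and enriched on streptavidin microbeads. FACS then separated cells into low and high (top ~1%) gates by anti-HA (expression) and streptavidin (reagent binding) fluorescence. Genes were colony-PCR amplified, MiSeq 2 × 250 sequenced and CDR-length filtered. A clone's polyreactivity label is that of its gate of origin.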
For the sequence “QVQLVESGGGLVQAGGSLRLSCAASGSTFLTNAMGWYRQAPGKERELVAAIRTSGGSTYYADSVKGRFTISRDNAKNTVYLQMNSLKPEDTAVYYCAASYRRRRFSEYYYWGQGTQVTVSS”, the “polyreactivity (PSR sort gate)” value was “high polyreactivity”. “QVQLVESGGGLVQAGGSLRLSCAASGSTFLTYAMGWYRQAPGKERELVAAISIAGSTYYADSVKGRFTISRDNAKNTVYLQMNSLKPEDTAVYYCAADIFERGPVPDRHNGYDYWRQGTQVTVSS”: the “polyreactivity (PSR sort gate)” value was “low polyreactivity”. With “QVQLVESGGGLVQAGGSLRLSCAASGSTFLVYAMGWYRQAPGKERELVARINWRGSSTYADSVKGRFTISRDNAKNTVYLQMNSLKPEDTAVYYCNADSYRYYHPTYIYDYWGQGTQVTVSS”, the “polyreactivity (PSR sort gate)” value is listed as “low polyreactivity”.

As to “QVQLVESGGGLVQAGGSLRLSCAASGSTFLWYAMGWYRQAPGKERELVATISGSGGSTYYADSVKGRFTISRDNAKNTVYLQMNSLKPEDTAVYYCARDTLGGTSLGDYWGQGTQVTVSS”, the “polyreactivity (PSR sort gate)” value is listed as “high polyreactivity”. For “QVQLVESGGGLVQAGGSLRLSCAASGSTFLWYTIGWYRQAPGKERELVADISSGGTTYYADSVKGRFTISPDNAKNTVYFQMNSLKPEDTAVYFCAKTRWPYDRWKYAFGYWGQGTQVTVSS”, the “polyreactivity (PSR sort gate)” value is “high polyreactivity”. For the sequence “QVQLVESGGGLVQAGGSLRLSCAASGSTFLYYAMGWSRQAPGKEMELVAAISGSGGSTYYADSVKGRFTISRDNAKNTVYLQMNSLKPEDTAVYYCNAVARRHGLGPYDYWGQGTQVTVSS”, the “polyreactivity (PSR sort gate)” value was “high polyreactivity”. With “QVQLVESGGGLVQAGGSLRLSCAASGSTFLYYAMGWYRQAPGKERELVAAITWSGGRTYYADSVKGRFTISRDNAKNTVYLQMNSLKPEVTAVYYCNKAYPWLRSTALNPGLYDYWGQGTQVTVSS”, the “polyreactivity (PSR sort gate)” value was “high polyreactivity”. Consider “QVQLVESGGGLVQAGGSLRLSCAASGSTFLYYAMGWYRQAPGKERELVARITTRVGRTYYADSVKGRFTISRDNAKNTVYLQMNSLKPEDTAVYYCAAYPDYSYYYWGQGTQVTVSS”, for which the “polyreactivity (PSR sort gate)” value is “high polyreactivity”. In the case of “QVQLVESGGGLVQAGGSLRLSCAASGSTFLYYAMGWYRQAPGKERELVARITTRVGRTYYADSVKGRFTISRDNAKNTVYLQMNSLNPEDTAVYYCAAYPDYSYYYWGQGTQVTVSS”, the “polyreactivity (PSR sort gate)” value was “high polyreactivity”. Take “QVQLVESGGGLVQAGGSLRLSCAASGSTFLYYAMGWYRQAPRKESELVATITDGGSTNYSDSVKGRFTISRDNAKNTVDLQMNSLKPEDTAVYYCAKRQWRPTYRYGYWGQGTQVTVSS”: the “polyreactivity (PSR sort gate)” value was “low polyreactivity”. Under “QVQLVESGGGLVQAGGSLRLSCAASGSTFLYYAMGWYRQEPGKEREFVASISGSGGSTNYADSVKGRFTISRDNAKNTVYLQMNSLKPEDTAVYYCAKEYVTEFQGYYYWGQGTQVTVSS” stands “low polyreactivity”. As for “QVQLVESGGGLVQAGGSLRLSCAASGSTFNANAMGWYRQAPGKERELVAGISSGGSTYADSVKGRFTISRDNAKNTVYLKMNSLKPEDTAVYYCNADFYSWYPTFYWYDYWGQGTQVTVSS”, the “polyreactivity (PSR sort gate)” value is given as “high polyreactivity”. As to “QVQLVESGGGLVQAGGSLRLSCAASGSTFNAYAMGWYRQAPGKERELVADISFSGGTYYADSVKGRFTISRDNAKNTVYLQMNSLKPEDTAVYYCSAESRWRSSAGGYYYWGQGTQVTVSS”, the “polyreactivity (PSR sort gate)” value is reported as “low polyreactivity”. For the sequence “QVQLVESGGGLVQAGGSLRLSCAASGSTFNDYVMGWYRQAPGKERELVAAISRSGGSTYYADSVKGRFTISRDNAKNTVYLQMNSLNPEDTAVYYCAAASPGPWRYDYWGQGTQVTVSS”, the “polyreactivity (PSR sort gate)” value is given as “high polyreactivity”. As for “QVQLVESGGGLVQAGGSLRLSCAASGSTFNGYAMGWSRQAPGKERELVAAISWSSGSTYYADSVKGRFTISRDNAKNTVYLQMNSLKPEDTAVYYCNKYYGYHKIKEYDYWGQGTQVTVSS”, the “polyreactivity (PSR sort gate)” value was “high polyreactivity”. With “QVQLVESGGGLVQAGGSLRLSCAASGSTFNGYAMGWYRQAPGKERELVAAISKRGGSTYYADSVKGRFTISRDNEKNTVYLQMNSLKPEDTAVYYCAARNPTQYLMDYWGQGTQVTVSS”, the “polyreactivity (PSR sort gate)” value is recorded as “high polyreactivity”. Regarding “QVQLVESGGGLVQAGGSLRLSCAASGSTFNGYAMGWYRQAPGKERELVAAISSDGGSTYYADSVKGRFTISRDNAKNTVYLQMNSLKPEYTAVYYCAALVYVSGYGYYYWGQGTQVTVSS”, the “polyreactivity (PSR sort gate)” value is reported as “high polyreactivity”. As to “QVQLVESGGGLVQAGGSLRLSCAASGSTFNGYAMGWYRQAPGKERELVAAISWRGGSTYYADSVKGRFTISRDNAKNTVYLQMNSLKPEDTAVYYCNTLLYYGHRYYYWGQGTQVTVSS”, the “polyreactivity (PSR sort gate)” value was “high polyreactivity”. For “QVQLVESGGGLVQAGGSLRLSCAASGSTFNKYTMGWYRQAPGKEREFVAAISRIGGSTYYADSVKGRFTISRDNAKNTVYLQMNSLKPEDTAVYYCATGVRPLRKKPVEFYHWGQGTQVTVSS”, the “polyreactivity (PSR sort gate)” value is recorded as “low polyreactivity”. Under “QVQLVESGGGLVQAGGSLRLSCAASGSTFNRNAMGWYRQAPGKERELVASISSGDNTKYADSVKGRFTISRDNAKNTVYLKMNSLKPEDTAVYYCNTVNKSLYAGLRKRWGGYYYWGQGTQVTVSS” stands “high polyreactivity”. In the case of “QVQLVESGGGLVQAGGSLRLSCAASGSTFNRYAMGWYRQAPGKERELVAAISGSGSSTYYADSVKGRFTISRDNAKNTVYLQMNSLKPEDTAVYYCAAVRYEYDYWGQGTQVTVSS”, the “polyreactivity (PSR sort gate)” value is given as “high polyreactivity”. In the case of “QVQLVESGGGLVQAGGSLRLSCAASGSTFNRYAMGWYRQAPGKERELVAAISSRGGRTYYADSVKGRFTISRDNAKNTVYLQMNSLKPEDTAVYYCAADSSIDYDWGQGTQVTVSS”, the “polyreactivity (PSR sort gate)” value is given as “high polyreactivity”. For “QVQLVESGGGLVQAGGSLRLSCAASGSTFNRYAMGWYRQAPGKERELVAGISYSGTRTYYADSVKGRVTISRDNAKNTVYLQMNSLKPEDTAVYYCAAVYPGPYYARRRLFYWGQGTQVTVSS”, the “polyreactivity (PSR sort gate)” value is “high polyreactivity”. With “QVQLVESGGGLVQAGGSLRLSCAASGSTFNSYAMGWYRQAPGKERELVAAISWSGGSTYYADSVKGRFTISRDNAKNTVYLQMNSLKPEDPAVYYCNADYWWEYAYGVDYWGQGTQVTVSS”, the “polyreactivity (PSR sort gate)” value is reported as “low polyreactivity”. Under “QVQLVESGGGLVQAGGSLRLSCAASGSTFNTYVMGWYRQAPGKERELVAAISSSGGTTYYADSVKGRFTISRDNAKNTVYLQMNSLKPEDTAVYYCNAVPKYGSRLYRYGYWGQGTQVTVSS” stands “high polyreactivity”. Under “QVQLVESGGGLVQAGGSLRLSCAASGSTFNWNAMGWYRQAPGKERELVAAISRSGGRTSYADSVKGRFTISRDNAKNTVYLQMNSLKPEDTAVYYCAAEKVGTRPSRDYDYWGQGTQVTVSS” stands “high polyreactivity”.

“QVQLVESGGGLVQAGGSLRLSCAASGSTFNWNAMGWYRQAPGTERELVAAISKSGGTTYYADSVKGRFTISRDNAKNTVYFQMNSLKPEDTAVYYCAAVRRYHSYPDGGYWGQGTQVTVSS”: the “polyreactivity (PSR sort gate)” value is given as “high polyreactivity”. On to “QVQLVESGGGLVQAGGSLRLSCAASGSTFNWYAMGWYRQAPGKERELVASIRISGGSTYYADSVKGRFTISRDNAKNTVYLQMNSLKPEDTAVYYCNAKLFIRWFTYDYLGQGTQVTVSS”, for which the “polyreactivity (PSR sort gate)” value was “low polyreactivity”.

Take “QVQLVESGGGLVQAGGSLRLSCAASGSTFNYNAMGWYRQAPGKERELVAAISSGASTNYADSVKGRFTISRDNAKNTVYLQMNSLKPEDTAVYYCAARSRTPGWYSTISRKMYWGQGTQVTVSS”: the “polyreactivity (PSR sort gate)” value is “high polyreactivity”. Turning to “QVQLVESGGGLVQAGGSLRLSCAASGSTFPANAMGWYRPAPGKERELVAAISSVGSTNYADSVKGRFTISRDNAKNTVYLQMNSLKPEDTAVYYCATQPTWYTVGDLDYWGQGTQVTVSS”, the “polyreactivity (PSR sort gate)” value is on record as “low polyreactivity”. Consider “QVQLVESGGGLVQAGGSLRLSCAASGSTFPAYAMGWYRQAPGKERELVAGISSGGRTYYADSVKGRFTISRDNAKNTVYLQMNSLKPEDTWVYYCAAFRFYWQRPERYYYWGQGTQVTVSS”, for which the “polyreactivity (PSR sort gate)” value was “high polyreactivity”.

On to “QVQLVESGGGLVQAGGSLRLSCAASGSTFPDNAMGWYRQAPGKERELVAAISWSGGSTNYADSVKGRFTISRDNAKNTVYLQMNSLKPEDTAVYYCNADDASHYYFRDEYWGLGTQVTVSS”, for which the “polyreactivity (PSR sort gate)” value is on record as “low polyreactivity”. Consider “QVQLVESGGGLVQAGGSLRLSCAASGSTFPDNAMVWYRQAPGKEREFVATITWRGGRTNYADSVKGRFTISRDNAMNTVYLQMNSLKPEDTAFYYCDKVVRYARSNEYDTWGQGTQLTVSS”, for which the “polyreactivity (PSR sort gate)” value is reported as “low polyreactivity”. As for “QVQLVESGGGLVQAGGSLRLSCAASGSTFPEYAMGWYRKAPGKERELVAAISKSGGRTYYADSVKGRFTISRDNAKNTVYLQMNSLNPEDTAVYYCARDSYPHGRARFDYWGQGTQVTVSS”, the “polyreactivity (PSR sort gate)” value is “high polyreactivity”. “QVQLVESGGGLVQAGGSLRLSCAASGSTFPEYAMGWYRQAPGKERELVADISSGGDTSYADSVKGRFTISRDNAKNTVYLQMNSLNPEDTAVYYCAAGTAGTTGSPKFSGYGYDYWGQGTQVTVSS”: the “polyreactivity (PSR sort gate)” value was “low polyreactivity”. With “QVQLVESGGGLVQAGGSLRLSCAASGSTFPFNAMGWYRQAPGKERELVAGIRSRGGSTYYADSVKGRFTISRDNAKNTVYLQMNSLIPEDTAVSSCAKVYKDRDDLFYYWGQGTQVTVSS” the entry was “low polyreactivity”; with “QVQLVESGGGLVQAGGSLRLSCAASGSTFPFYAMGWYRQAPGKERELVAAITSGGSTYADSVKGRFTISRDNAKNTVYLQMNSLKPEDTAVYYCAASWPRWWRFGYWGQGTQVTVSS”, “low polyreactivity”.

As for “QVQLVESGGGLVQAGGSLRLSCAASGSTFPFYDMGWYRQAPGKERELVAAIRSGGSTYADSVKGRFTISRDNAKNTVYLQMNSLKPEDTAVYYCAKRCPSNRYSRYRVKYDYWGQGSQVTVSS”, the “polyreactivity (PSR sort gate)” value is recorded as “low polyreactivity”. “QVQLVESGGGLVQAGGSLRLSCAASGSTFPFYDMGWYRQAPGKERELVTAIRSGGSTYADSVKGRFTISRDNAKNTVYLQMNSLKPVDTAVYYCAKRCPSIRYSRYRVKYDYWGQGTQVTVSS”: the “polyreactivity (PSR sort gate)” value was “low polyreactivity”.

Take “QVQLVESGGGLVQAGGSLRLSCAASGSTFPGYAMGWYRQAPGKERELVAAINGRGGSTYYADSVKGRFTISRDNAKNTVYLQMNSLKPEDSAVYYCAAFVGSRSAKYIKYWGQGTQVTVSS”: the “polyreactivity (PSR sort gate)” value is listed as “high polyreactivity”. With “QVQLVESGGGLVQAGGSLRLSCAASGSTFPGYAMGWYRQAPGKERELVAAISASGGSTYYADSVKGRFTISRDNAKNTVYLQMNSLKPEDTAVYYCAKVLSRGASAHDYWGQGTQVTVSS” the entry was “low polyreactivity”.
